Consider 1 molecule from patent US12534541B2, “Anti-PTK7 antibody and uses thereof” (MABCARE THERAPEUTICS, priority 2023, dated 2026).

Read-outs that look alike come from different tables or passages of the source.

For data set [1], the system named is refractory ovarian cancer expressing PTK7, triple-negative breast cancer, and NSCLC. The settings on record: cited from earlier work.
For data set [2], the system named is esophageal squamous cell carcinoma PDX LD1-2015-361318. Briefly: In vivo anti-tumor activity against human esophageal squamous cell carcinoma PDX LD1-2015-361318. The settings on record: NU/NU mice, i.v. 5 mg/kg, once a week, 2 doses, vs negative control. As to the method: (§1) 6-week-old NU/NU mice, female, weighing 18-21 g, were purchased from Beijing Vital River Laboratory Animal Technology Co., Ltd. The mice were subcutaneously inoculated with esophageal squamous cell carcinoma tumor mass (specimen no. 361318, obtained from Xi'an LIDE Biotech Co. Ltd.). When the average tumor volume reached 150 mm^3, the antibody-drug conjugate Ab13-T1000-exatecan as prepared in Example 5 was administered intravenously at a dose of 10 mg/kg, the antibody-drug conjugate h6M24-vc0101 as prepared in Example 8 was administered intravenously at a dose of 5 mg/kg, and a negative control Vehicle group was set and administered intravenously with PBS at an equal dose, once a week for a total of 2 doses. After dosing, the tumor volume was measured twice a week using a vernier caliper and calculated according to the following formula: TV=(length*width^2)/2.

Data set [3] is described as follows: Size exclusion chromatography (SEC) for the degree of aggregation. It counts as physicochemical. The conditions noted are these: integral analysis, product after preparation. The procedure:
(§2) Activated charcoal powder (30 mg of powder per ml of liquid) was then added to the collection solution, which was suspended for 2 h at room temperature, centrifuged, and sterilized using a 0.22 μm filter membrane, and the activated charcoal particles were removed at the same time. The resulting product was calculated by UV for its concentration and DAR value, detected by hydrophobic chromatography (HIC) for product homogeneity, and detected by size exclusion chromatography (SEC) for the degree of aggregation. The products were placed in a refrigerator at −80° C. for cryopreservation.
as §2, with “At the end of the reaction, the coupling reaction mixture was immediately desalted and exchanged with histidine-acetic acid/NaCl buffer using a desalting column. Activated” for “Activated”, “product was” for “products were”, “cryopreservation. […]” for “cryopreservation.”

Data set [4] has as its system cervical squamous cell carcinoma PDX LD1-0010-362343. Briefly: In vivo anti-tumor activity against human cervical squamous cell carcinoma PDX LD1-0010-362343. The conditions noted are these: NU/NU mice, i.v. 5 mg/kg, once a week, 2 doses, vs negative control. The procedure: as §1, with “cervical” for “esophageal”, “362343,” for “361318,”
The next data set has as its system OVCAR-3 cells. The data set is described as follows: In vivo anti-tumor activity against human ovarian cancer cell line OVCAR-3. The settings on record: OVCAR-3 in NCG mice, i.v. 3 mg/kg or 5 mg/kg, 1 dose, vs negative control. The procedure: 6-week-old NCG mice, female, weighing 18-21 g, were purchased from Beijing Vital River Laboratory Animal Technology Co., Ltd. The mice were subcutaneously inoculated with OVCAR-3 cells (Human Ovarian Cancer Cells, ATCC, Catalog No. HTB-161). When the average tumor volume reached 150 mm^3, the antibody-drug conjugates Ab13-T1000-exatecan and h6M24-T1000-exatecan as prepared in Example 5 and the antibody-drug conjugate Ab13-vc0101 and h6M24-vc0101 as prepared in Example 8 were administered intravenously at a dose of 3 mg/kg or 5 mg/kg, respectively, and a negative control Vehicle group was set and administered intravenously with PBS at an equal dose, once a week for a total of 1 dose. After dosing, the tumor volume was measured twice a week using a vernier caliper and calculated according to the following formula: TV=(length*width^2)/2.

Data set [5] has as its system triple-negative breast cancer PDX LD1-2009-361918. It counts as in vivo. The settings on record: NU/NU mice, i.v. 5 mg/kg, once a week, 2 doses, vs negative control.
Procedure: 6-week-old NU/NU mice, female, weighing 18-21 g, were purchased from Beijing Vital River Laboratory Animal Technology Co., Ltd. The mice were subcutaneously inoculated with triple-negative breast cancer tumor mass (specimen no. 361918, obtained from Xi'an LIDE Biotech Co. Ltd.). […] After dosing, the tumor volume was measured twice a week using a vernier caliper and calculated according to the following formula: TV=(length*width^2)/2.
Data set [6] deals with head and neck squamous cell carcinoma PDX LD1-0023-200615. The data set is described as follows: In vivo anti-tumor activity against human head and neck squamous cell carcinoma PDX LD1-0023-200615. The settings on record: NU/NU mice, i.v. 5 mg/kg, once a week, 2 doses, vs negative control. As to the method:
as §1, with “head and neck” for “esophageal”, “200615,” for “361318,”

For data set [7], the system named is lung squamous cell carcinoma PDX LD1-0025-200615. The data set is described as follows: In vivo anti-tumor activity against human lung squamous cell carcinoma PDX LD1-0025-200615. The settings on record: NU/NU mice, i.v. 5 mg/kg, once a week, 2 doses, vs negative control. The procedure: as §1, with “lung” for “esophageal”, “200615,” for “361318,”

B1: h6M24-vc0101: control drug: h6M24 (cofetuzumab) linked to Aur0101 via mc-VC-PAB linker, DAR about 4 (conjugate, chains of the INN, looked up)
VH: QVQLVQSGPEVKKPGASVKVSCKASGYTFTDYAVHWVRQAPGKRLEWIGVISTYNDYTYNNQDFKGRVTMTRDTSASTAYMELSRLRSEDTAVYYCARGNSYFYALDYWGQGTSVTVSS
VL: EIVLTQSPATLSLSPGERATLSCRASESVDSYGKSFMHWYQQKPGQAPRLLIYRASNLESGIPARFSGSGSGTDFTLTISSLEPEDFAVYYCQQSNEDPWTFGGGTKLEIK
modifications: Aur0101 via mc-VC-PAB linker, DAR 4
Consider B1, for which the dose-limiting toxicity result in data set [1] (highest dose assessed every 3 weeks) is “Two patients experienced a dose-limiting toxicity (grade 3 headache and fatigue)”. Besides, the “objective response rate (ORR)” value in data set [1] (patients with NSCLC (6/31 patients)) is on record as 19%; in data set [1] (patients with refractory ovarian cancer expressing PTK7 (17/63 patients)), 27%; in data set [1] (patients with triple-negative breast cancer (6/29 patients)), 21%. Besides, the “tumor growth inhibition (tumor volume over time)” value is reported as “partially inhibit tumor growth” in data set [2]; “significantly inhibit tumor growth” in data set [4]; “less effective in inhibiting tumor growth” in the data set with OVCAR-3 cells; “does not produce any tumor growth inhibitory effect” in data set [5]; “significantly inhibit tumor growth” in data set [6]; “partially inhibit tumor growth” in data set [7]. In addition, in data set [3], the percentage of aggregates was 1.39%.
